Measurements reported in patent publication US20240060104A1, “ATP-PRT VARIANT WITH REDUCED FEEDBACK INHIBITION BY HISTIDINE, AND HISTIDINE-PRODUCING STRAIN EXPRESSING SAME” (DAESANG CORPORATION, priority 2020, published 2024).

Biological target: T1, ATP phosphoribosyltransferase (Escherichia coli, UniProt P60757, E271K/H232T/R250H/S288P/T252L)
T1 construct: endogenous in cells; host or cells: E. coli DS9H (chromosomal hisG); sonicated cells, centrifuged supernatant
Assay type: biochemical, E. coli
Settings: FIG. 1, compared among hisG_WT, hisG_SDM4, hisG_SDM7
Description: Each strain was cultured under conditions of 30° C. and 180 rpm. When the OD600 reached 0.6, ATP-PRT expression was induced with 1 mM IPTG (final concentration) and additional culture was performed for about 4 hours. The cells obtained after culturing were sonicated and centrifuged. The obtained supernatants were used for evaluation of ATP phosphoribosyltransferase activity. […] The protein in each supernatant was quantified to match the concentration, and the enzyme activity was measured after mixing the reactants according to the reaction composition shown in Table 8 below.
The activity was measured at 30° C. at a UV wavelength of 290 nm at 2 minute intervals for 30 minutes.

B1: hisG_SDM7: ATP-PRT variant containing H232T, R250H, T252L, E271K and S288P mutations (protein)
chain: MTDNTRLRIAMQKSGRLSDDSRELLARCGIKINLHTQRLIAMAENMPIDILRVRDDDIPGLVMDGVVDLGIIGENVLEEELLNRRAQGEDPRYFTLRRLDFGGCRLSLATPVDEAWDGPLSLNGKRIATSYPHLLKRYLDQKGISFKSCLLNGSVEVAPRAGLADAICDLVSTGATLEANGLREVEVIYRSKACLIQRDGEMEESKQQLIDKLLTRIQGVIQARESKYIMMTAPTERLDEVIALLPGAEHPLILPLAGDQQRVAMHMVSSKTLFWETMEKLKALGASPILVLPIEKMME
modifications: hisG_SDM7
notes: ATP-PRT variant containing H232T, R250H, T252L, E271K and S288P mutations
Resistance to activity inhibition by histidine: best resistance
